Experimental data from article PMC5963676.
“Also recorded” adds a separate entry of the source.

Tests used:
[1] = biological target: His-tagged pantothenate synthetase with a C-terminal extension (PS-[LCGR]), expressed from pCA24N(-GFP) (E. coli); assay: ITC
[2] = biological target: His-tagged YfcD (putative Nudix hydrolase) expressed from pCA24N(-GFP) (E. coli); assay: ITC
[3] = biological target: His-tagged YfcD (putative Nudix hydrolase) expressed from pCA24N(-GFP); assay: fluorescence polarisation

His-tagged YfcD (putative Nudix hydrolase) expressed from pCA24N(-GFP) (natural protein)
Kd [1]: 30 µM

His-tagged pantothenate synthetase expressed from pET28a (from UniProt P31663 1-283) (enzyme)
Kd [2]: 2.11 µM

B1: FITC-labelled His-tagged pantothenate synthetase (pET28a), labelled by sortase on the N-terminal glycine (protein)
chain: MLIIETLPLLRQQIRRLRMEGKRVALVPTMGNLHDGHMKLVDEAKARADVVVVSIFVNPMQFDRPEDLARYPRTLQEDCEKLNKRKVDLVFAPSVKEIYPNGTETHTYVDVPGLSTMLEGASRPGHFRGVSTIVSKLFNLVQPDIACFGEKDFQQLALIRKMVADMGFDIEIVGVPIMRAKDGLALSSRNGYLTAEQRKIAPGLYKVLSSIADKLQAGERDLDEIITIAGQELNEKGFRADDIQIRDADTLLEVSETSKRAVILVAAWLGDARLIDNKMVELA
K0.5 [3]: K0.5 = 1.87 ± 0.08 μM; also recorded: K0.5 2.16 ± 0.11 μM
